# Measurements published in patent US20180030151A1 (MOGAM INSTITUTE FOR BIOMEDICAL RESEARCH, published 2018).
# Like-named read-outs stand apart in the source and are kept apart here.
# B1: clone T417 (antibody, V domains shown)
# VH: EVHLVESGGDLVKPGGSLKLSCAASGFTFSSYAMSWVRQTPDKRLEWVATITTGGSYTYYPDSVKGRFTISRDNAKNTLYLQMSSLKSEDTAMYYCARQDGNFLMDYWGQGTTVTVSS
# VL: not shown
# notes: also called T417 chimeric antibody
# Tests used:
# Assay in all cases: cell-based or functional assay
# [1] = target: T1, recombinant human TFPI (tissue factor pathway inhibitor) (human, UniProt P10646 29-304)
# [2] = target: T1, recombinant human TFPI (tissue factor …); remark: listed apart in the source
# [3] = target: T1, recombinant human TFPI (tissue factor …); remark: listed apart in the source
# [4] = target: T1, recombinant human TFPI (tissue factor …); remark: listed apart in the source
# [5] = target: T1, recombinant human TFPI (tissue factor …); remark: listed apart in the source
# [6] = target: T1, recombinant human TFPI (tissue factor …); remark: listed apart in the source
# [7] = target: T1, recombinant human TFPI (tissue factor …); remark: listed apart in the source
binder,measurement,setting,value
B1,"A405, TF/FVIIa/FX complex assay, Ab 1.56 nM",[1],0.134
same,"A405, TF/FVIIa/FX complex assay, Ab 3.13 nM",[1],0.147
same,"A405, TF/FVIIa/FX complex assay, Ab 6.25 nM",[1],0.179
same,"A405, TF/FVIIa/FX complex assay, Ab 12.5 nM",[1],0.242
same,"A405, TF/FVIIa/FX complex assay, Ab 25 nM",[1],0.873
same,"A405, TF/FVIIa/FX complex assay, Ab 50 nM",[1],0.945
same,"A405, TF/FVIIa/FX complex assay, Ab 100 nM",[1],0.949
same,"FXa assay % of FXa alone, 0.625 nM Ab, 10 nM TFPI",[2],6%
same,"FXa assay % of FXa alone, 2.5 nM Ab, 10 nM TFPI",[2],10%
same,"FXa assay OD, 0.625 nM Ab, 10 nM TFPI",[2],0.061 OD
same,"FXa assay OD, 2.5 nM Ab, 10 nM TFPI",[2],0.098 OD
same,"FXa assay OD, 10 nM Ab, 10 nM TFPI",[2],0.753 OD
same,"FXa assay OD, 40 nM Ab, 10 nM TFPI",[2],0.887 OD
same,"% of Normalized, TF/FVIIa/FX complex assay, Ab 1.56 nM",[3],14.5%
same,"% of Normalized, TF/FVIIa/FX complex assay, Ab 3.13 nM",[3],16%
same,"% of Normalized, TF/FVIIa/FX complex assay, Ab 6.25 nM",[3],19.4%
same,"% of Normalized, TF/FVIIa/FX complex assay, Ab 12.5 nM",[3],26.3%
same,"% of Normalized, TF/FVIIa/FX complex assay, Ab 25 nM",[3],95%
same,"% of Normalized, TF/FVIIa/FX complex assay, Ab 50 nM",[3],103%
same,"% of Normalized, TF/FVIIa/FX complex assay, Ab 100 nM",[3],103%
same,"FXa assay % of FXa alone, 2.5 nM Ab, 10 nM TFPI",[4],5.5%
same,"FXa assay % of FXa alone, 5 nM Ab, 10 nM TFPI",[4],7.1%
same,"FXa assay % of FXa alone, 10 nM Ab, 10 nM TFPI",[4],28.8%
same,"FXa assay % of FXa alone, 20 nM Ab, 10 nM TFPI",[4],54.5%
same,"FXa assay OD, 2.5 nM Ab, 10 nM TFPI",[4],0.048
same,"FXa assay OD, 5 nM Ab, 10 nM TFPI",[4],0.062
same,"FXa assay OD, 10 nM Ab, 10 nM TFPI",[4],0.251
same,"FXa assay OD, 20 nM Ab, 10 nM TFPI",[4],0.474
same,"% of Normalized, TF/FVIIa/FX complex assay, Ab 1.56 nM",[5],5.2%
same,"% of Normalized, TF/FVIIa/FX complex assay, Ab 3.13 nM",[5],5.5%
same,"% of Normalized, TF/FVIIa/FX complex assay, Ab 6.25 nM",[5],5.8%
same,"% of Normalized, TF/FVIIa/FX complex assay, Ab 12.5 nM",[5],8.7%
same,"% of Normalized, TF/FVIIa/FX complex assay, Ab 25 nM",[5],32.1%
same,"% of Normalized, TF/FVIIa/FX complex assay, Ab 50 nM",[5],70.7%
same,"% of Normalized, TF/FVIIa/FX complex assay, Ab 100 nM",[5],95.5%
same,"% of Normalized, TF/FVIIa/FX complex assay (FX 5 nM), Ab 1.56 nM",[6],5.5%
same,"% of Normalized, TF/FVIIa/FX complex assay (FX 5 nM), Ab 3.13 nM",[6],6%
same,"% of Normalized, TF/FVIIa/FX complex assay (FX 5 nM), Ab 6.25 nM",[6],6.2%
same,"% of Normalized, TF/FVIIa/FX complex assay (FX 5 nM), Ab 12.5 nM",[6],8.9%
same,"% of Normalized, TF/FVIIa/FX complex assay (FX 5 nM), Ab 25 nM",[6],19%
same,"% of Normalized, TF/FVIIa/FX complex assay (FX 5 nM), Ab 50 nM",[6],62.9%
same,"% of Normalized, TF/FVIIa/FX complex assay (FX 5 nM), Ab 100 nM",[6],92%
same,"% of Normalized, TF/FVIIa/FX complex assay, Ab 1.56 nM",[7],17.5%
same,"% of Normalized, TF/FVIIa/FX complex assay, Ab 3.13 nM",[7],17.2%
same,"% of Normalized, TF/FVIIa/FX complex assay, Ab 6.25 nM",[7],20%
same,"% of Normalized, TF/FVIIa/FX complex assay, Ab 12.5 nM",[7],27.7%
same,"% of Normalized, TF/FVIIa/FX complex assay, Ab 25 nM",[7],97.7%
same,"% of Normalized, TF/FVIIa/FX complex assay, Ab 50 nM",[7],102%
same,"% of Normalized, TF/FVIIa/FX complex assay, Ab 100 nM",[7],102%
